# In US20200223906A1 (Adimab, published 2020):
# Where a chain is given by its changes, count along the chain named.
# B1: ADI-18915 (antibody, V domains shown)
# VH: QVQLVQSGGGLVKPGGSLRLSCAASGFTFSKAWMNWVRQAPGKGLEWVGRIRSKTDGGTADYAAPVKGRFTMSRDDSKNTLYLQMNSLKTEDTAVYYCATDSRRLYDSRGFYSSAFDVWGQGTTVTVSS
# VL: QSVLTQPPSVSGAPGQRVTISCTGSSSNIGAGYDVHWYQHLPGTAPKVLIYGNNNRPSGVPDRFSGSKSGTSASLAITGLQAEDEADYYCQSYDDSLTGWVFGGGTKVTVL
# notes: full-length IgG from yeast; also called Antibody Number 269; Ab # 269
# B2: ADI-18919 (antibody, V domains shown)
# VH: QVQLQESGPGLEKPSQTLSLTCTVSRGSIRIGGYFWSWIRQHPGKGLEWLGYISNDGATDYNPSLRSRLAISADTSKNQFSLTLRSVTAADTAIYYCARTSYAGRMLDRWGQGILVTVSS
# VL: DIRVTQSPVSLPVTPGEPASISCRSSQSLLHSNGNNYLDWYLQKPGQSPQLLIYMGSYRASGVPDRFSGSGSGTDFTLKISRVEAEDVGVYYCMQGLQIPWTFGQGTKLEIK
# notes: full-length IgG from yeast
# B3: ADI-18917 (antibody, V domains shown)
# VH: EVQLVESGGGLVKPGGSLRLSCAASGFTFSSFGMHWVRQAPGQGLEWVASITGGSSYINYADSVKGRFTISRDNAKKSLSLQMKNLRAEDTAEYYCVRGVLPGDTGGGWFDSWGQGTLVTVSS
# VL: QSVLTQPPSMSGAPGQRVTISCTGTSSNIGAGYDVQWYQQFPGTAPKLLISGNNNRPSGVPDRFSGSKSGASASLAITGLQAEDEADYYCQSYDYSLNWVFGGGTKLTVL
# notes: full-length IgG from yeast; also called Antibody Number 271; Ab # 271
# B4: ADI-18920 (antibody, V domains shown)
# VH: EVQLLESGGGVVQPGRSLRLSCAASGFTFSSYAMHWVRQTPDKGLEWVALISDDGRNEYYADSVQGRFTISRDKSKNTLHLEMNSLRAEDTAVYYCAKVRNEAWELLGNDDALDVWGQGTMVTVSS
# VL: QSVLTQPPSVSAAPGQKVTISCSGTSFNIGSNYVSWYQLLPGTAPKLLIFDNYKRPSGIPDRFSGSWSGTSATLAISGLQTGDEAEYFCGTWDTSLRAGVFGGGTKLTVL
# notes: full-length IgG from yeast; also called Antibody Number 274; Ab # 274
# B5: ADI-18913 (antibody, V domains shown)
# VH: QVQLVQSGPEVKKPGESLTISCKGSGYDFSNNWIGWVRQMPGKGLEWMGIIYPGDSDTRYSPSFQGQVTLSVDKSISTAYLQWRSLKASDSGIYYCARQIGGLVCSSESCYFYGMDVWGQGTTVTVSS
# VL: DIQLTQSPSSLSASVGGRVTITCRASQSISNYLNWYQHKPGKAPELLIYGASSLQSGVPSRFSGSGSGTDFTLTISSLQPEDFATYYCQQSDTTPFTFGQGTKVDIK
# notes: full-length IgG from yeast
# B6: ADI-18916 (antibody, V domains shown)
# VH: B5 VH
# VL: B5 VL with Q3R, L4V, V104L, D105E
# notes: full-length IgG from yeast; also called Antibody Number 270; Ab # 270
# B7: ADI-18923 (antibody, V domains shown)
# VH: EVQLLESGGGLVKPGGSLRLSCAASGFTFSSYSMNWVRQAPGKGLEWVSSISSSSSYIYYADSVKGRFTISRDNAKNSLYLQMNSLRAEDTAVYYCARDWPNSSSSPNWFDPWGQGTLVTVSS
# VL: QSVLTQPPSVSGAPGQRVTISCTGSSSNIGAGYDVHWYQQLPGTAPKLLIYGNSNRPSGVPDRFSGSKSGTSASLAITGLQAEDEADYYCQSYDSSLSGFYVFGTGTKLTVL
# notes: full-length IgG from yeast
# B8: ADI-18926 (antibody, V domains shown)
# VH: EVQLVESGAEVKKPGASVKVSCQTSGYTFSHFGVTWIRQAPGQGLEWLGWISAYNGNTDYADKLQGRLTMTTDTSTNTAYMELRSLRSDDTAVYYCARDPPASAAAMLDYWGQGTLVTVSS
# VL: DIVMTQSPLSLAVTLGQPASISCKSSQGLEYTDGNTYLSWFQQRPGQSPRRLIYKISNRDSGVPDRFSGSGSGTDFTLRISRVEAEDVGVYYCMQGTHGRGISFGPGTKVDIK
# notes: full-length IgG from yeast; also called Antibody Number 280; Ab # 280
# B9: ADI-18912 (antibody, V domains shown)
# VH: EVQLVESGGGLVKPGGALRLSCAASGFSFRSYSMNWVRQAPGKGLEWVSSISSSSNYINYADSVKGRFSISRDNAKNSLYLQMNSLRAEDTAVYYCARDLLPVERGPAFDIWGQGTMVTVSS
# VL: SYELTQPPSVSGAPGQRVTISCTGSSSNIGAGYDVHWFQQLPGAAPKLLIYANSNRPSGVPDRFSGSKSGTSASLAITGLQAEDEADYYCQSYDSRLGGSVFGGGTKVTVL
# notes: full-length IgG from yeast
# B10: ADI-18986 (antibody, V domains shown)
# VH: EVQLLESGGGVVQPGKSLRLSCAASGFTFNTYAIHWVRQAPGKGLEWVAAISYDGSNEYYSNSVKGRFTISRDNSKYTLELQMNSLRPEDTAVYYCARGASYYYVSSDLGYWGQGTLVTVSS
# VL: QSVVTQPPSVSGAPGQRVTISCTGSSSNIGSGYDVHWYQQLPGTAPKVVIYGNINRPSGVPERFSGSKSGTSASLAITGLQAEDEADYYCQSYDSLSASWVFGGGTKLTVL
# B11: ADI-18991 (antibody, V domains shown)
# VH: EVQLVESGPGLVKPSETLSLSCIVSGDSITSNDYYWSWIRQSPGKGLEWIGYIYHSGATFYTPSLRSRVTISTDRSKNQFSLRLSSVTAADTAVYYCASGPVGMATSNWFDPWGQGTLVTVSS
# VL: QPVLTQPPSVSVAPGKTATLTCGGDIIRTNSVNWYQQKPGQAPVLIIYYDSDRPSGIPGRFSASNSGSAATLTISRVEAGDEADYYCQVWDSSTDYHVVFGGGTKLTVL
# B12: ADI-18978 (antibody, V domains shown)
# VH: EVQLVESGGGVVQPGRSLRLSCEASGFTFSSFSMHWVRQAPGKGLEWVAVILYDGSNQYYADSVKGRFTISRDNSKNTLYLQMNTLRAEDTAMYYCAKSSSSHVNSRQDKWGQGTLVTVSS
# VL: EIVLTQSPSTLSASVGDRVTITCRASQSISRWLAWYQQKPGEAPKLLIHTASTLESGVPSRFSGSGSGTEFTLTINSLQPDDLATYYCQQYYNWWTFGQGTKVEIK
# B13: ADI-18983 (antibody, V domains shown)
# VH: EVQLVESGGGVVQPGRSLRLSCAASGFTFSSFSMHWVRQAPGKGLEWVALISSDERNSYYADSVKGRFTISRDNSKNTLYLQISRLKVEDTAVYYCAREAYEEWELTMGNLDHWGQGTLVTVSS
# VL: DIQLTQSPSSLSASVGDRVTITCRASQGIGNDLGWYQQKPGKAPKRLIYSTYSLQSGVPSRFSGSGSGTEFTLTISSLQPEDFATYYCLQHNRYPFTFGPGTKLEIK
# B14: ADI-18979 (antibody, V domains shown)
# VH: EVQLLESGAEVKKPGASVKISCKASGYIFTSYGVSWVRQAPGQGLKWMGWISGYNGNTYYDQKFQGRVTMTTDTSTNTAYMELRSLTSDDTAVYYCARDSFSETGTGFPDFWGQGTLVTVSS
# VL: EIVLTQSPLSLPVTLGQPASISCRSSQSLEYSDGNTYLNWFQQRPGQSPRRLIYKVSNRDSGVPDRFSGSGSGTDFTLKISRVEAEDVGVYYCMQATHRPRTFGQGTKVDIK
# B15: ADI-18993 (antibody, V domains shown)
# VH: EVQLVESGGGLVKPGGSLRLSCAASGFTLSSYAMNWVRQAPGKGLEWVSSISAGSSYIDYADSVKGRFTISRDNAKNSLYLQMNNLRAEDTALYYCAREVLPATAIGGAWLDPWGQGTLVTVSS
# VL: B7 VL with R17T, Q39R, G52S, S54N, G70D, E83G, S95I, G99A, F100S, L109V
# B16: ADI-18988 (antibody, V domains shown)
# VH: EVQLVESGGGLVRPGGSLRLSCAASGFSLSSYGMSWVRQAPGKGLEWVSSITAGSSYINYADSVKGRFTISRDNAKSSLFLQMTSLRVEDTAVYFCVREAYASSSALYWFDPWGQGTLVTVSS
# VL: QSVLTQPPSVSGAPGQRVTISCTGSSSNLGAGYVVHWYQQLPGTSPKLLIYGNTDRPSGVPDRFSGSKSGTSASLAISGLQAEDEADYYCQSYDSSLSGWVFGGGTKLTVL
# B17: ADI-18985 (antibody, V domains shown)
# VH: QVQLVQSGPEVKKPGASVKVSCEASGYTFTDFFVHWVRQAPGEGLVWLGWVNPLSGATKYAQNFQGRVTMTSDTSITTAYMALSSLRHDDTAVYYCTSQTSPYTPGAMGVWGQGTTVTVSS
# VL: DIRVTQSPASLSAFVGDRVTITCRASPAISGYLSWYQQKAGKAPKILIYDASNLYSGAPSRFSGSRSGTDFTLTITSLQPEDFATYYCQQTYNGLIAFGPGTKVEIK
# B18: ADI-18987 (antibody, V domains shown)
# VH: QVQLVQSGAEVKKPGSSVKVSCKASGGTFSGHAINWVRQAPGQGLEWMGGIIHIFGTVNYAPKFQGRVTITADASTGTVYMELSSLISEDTAVYYCARDAYEVWTGSYLPPFDDWGQGTLVTVSS
# VL: DIVMTQSPGTLSLSPGDRVTLSCRASQTVTSSYLAWYQQKPGQAPRLLIYGAFTRATGIPDRFSGSGSGTDFTLSISRLEPEDFAVYYCQQYGSSFLTFGGGTKVDIK
# Target: RSV F protein of subtype A (strain A2) on recombinant mKate-RSV virus (Respiratory syncytial virus subtype A …, UniProt P03420 26-574)
# Test: cell-based or functional assay
row,Binder,Neut IC50 (µg/ml) subtype A
1,B1,1.2 µg/mL
2,B2,0.123 µg/mL
3,B3,0.024 µg/mL
4,B4,0.041 µg/mL
5,B5,< 0.01 µg/mL
6,B6,< 0.01 µg/mL
7,B7,0.078 µg/mL
8,B8,0.023 µg/mL
9,B9,0.024 µg/mL

# Target: RSV F protein of subtype B (18537) on recombinant mKate-RSV virus (Respiratory syncytial virus subtype B …, UniProt P13843 26-574)
# Test: cell-based or functional assay
row,Binder,Neut IC50 (µg/ml) subtype B
1,B1,0.021 µg/mL
2,B2,0.261 µg/mL
3,B3,0.091 µg/mL
4,B4,0.049 µg/mL
5,B5,< 0.01 µg/mL
6,B6,< 0.01 µg/mL
7,B7,0.147 µg/mL
8,B8,0.092 µg/mL
9,B9,0.061 µg/mL

# Target: RSV F protein of subtype A (strain A2) on recombinant mKate-RSV (respiratory syncytial virus subtype A …, UniProt P03420 26-574)
# Test: cell-based or functional assay
row,Binder,Neut IC50 subtype A
1,B10,0.464 µg/mL
2,B11,0.028 µg/mL
3,B12,> 10 µg/mL
4,B13,0.028 µg/mL
5,B14,0.012 µg/mL
6,B15,0.078 µg/mL
7,B16,0.089 µg/mL
8,B17,0.034 µg/mL
9,B18,0.015 µg/mL

# Target: RSV F protein of subtype B (18537) on recombinant mKate-RSV (respiratory syncytial virus subtype B …, UniProt P13843 26-574)
# Test: cell-based or functional assay
row,Binder,Neut IC50 subtype B
1,B10,0.123 µg/mL
2,B11,0.228 µg/mL
3,B12,> 10 µg/mL
4,B13,0.075 µg/mL
5,B14,0.031 µg/mL
6,B15,0.128 µg/mL
7,B16,0.37 µg/mL
8,B17,0.09 µg/mL
9,B18,0.027 µg/mL

# Target: T1, RSV F subtype A, furin-cleaved ectodomain stabilized in the prefusion conformation (DS-Cav1) (Respiratory syncytial virus subtype A, UniProt P03420 26-524)
# T1 construct: extracellular domain; Trimeric soluble antigen; also called Prefusion subtype A
# Test: BLI, IgG on AHQ sensor, 100 nM antigen
row,Binder,Kd
1,B1,28.1 nM
2,B2,0.202 nM
3,B3,0.356 nM
4,B4,0.678 nM
5,B5,0.568 nM
6,B6,0.585 nM
7,B7,0.517 nM
8,B8,0.252 nM
9,B9,0.258 nM

# Target: T2, RSV F subtype B, furin-cleaved ectodomain stabilized in the prefusion conformation (DS-Cav1) (Respiratory syncytial virus subtype B)
# T2 construct: extracellular domain; Trimeric soluble antigen; also called Prefusion subtype B
# Test: BLI, IgG on AHQ sensor, 100 nM antigen
row,Binder,Kd
1,B1,0.421 nM
2,B2,0.163 nM
3,B3,0.332 nM
4,B4,0.0977 nM
5,B5,0.471 nM
6,B6,0.465 nM
7,B7,1.79 nM
8,B8,0.25 nM
9,B9,0.286 nM
